Laboratory results from the nanobody polyreactivity screen of Harvey et al. (2022).

Assay: yeast display, Sf9 membrane polyspecificity reagent, FACS + sequencing; frameworks hold sequencing errors
How it was run: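 Nanobodies came from a synthetic yeast display library in Saccharomyces cerevisiae BJ5465, induced with galactose for 36–48 hours and stained for 1 hour at 4 °C with 10% biotinylated, detergent-solubilized Sf9 membrane reagent. Cells were enriched on streptavidin microbeads and then FACS-sorted, with low and high (top ~1%) gates set on anti-HA fluorescence for expression and streptavidin fluorescence for reagent binding. Each polyreactivity label reflects the gate a clone came from. Genes were amplified by colony PCR, sequenced by MiSeq 2 × 250 and filtered by CDR length.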

Sequence	polyreactivity (PSR sort gate)
QVQLVESGGGLVQAGGSLRLSCAASGITFDGYGMGWYRQAPGKERQLVAAITYSGGRTYYADSVKGRFTISRDIEKNTVYLQMNSLKPEDTAVYYCAVVSRRLYEYDYWGQGTQVTVSS	high polyreactivity
QVQLVDSGGGLVQAGGSLRLSCAASGSIFPYNDMGWYRKAPGKERELVARITNGGSTNYADSVKGRFTISRDNAKNTVYLQMNSLKPEDTAVYYCNKDGTQEFAPDGHEYWGQCTQVTVSS	low polyreactivity
QVQLVESGGGLVQAGGSLRLSCAASGFNFADNAMGWYRQAPGKEREFVAAISRSGGTTYYADSVKGRFTISRDNAKNTVYLQMNSLKPEDTAVYYCATRLTSYPDYDYWGQGTQVTLSS	low polyreactivity
QVQLVESGGGLVQAGGSLRLSCAASGRTIDHNTMGWYRQAPGKERELVAAISWSGGTTYYADSVKGRFTISRDNEKNTVYLQMNSLKPEDTAVYYCAADRSRGSYGYQYDYWGQGTQVSVSS	low polyreactivity
QVQLVESGGGLVQAGGSLRLSCSASGYTIDLYAKGWYRQAPGKERELVAAISIRGGSTYYADSVKGRFTISRDNAKNTVYLQMNSLKPEDTAVYYCATVTYRRSYIAYRGTGDYDYWGQGTQVTVSS	low polyreactivity
QVHLVESGGGLVQAGGSLRLSCAASGSIFGRYAMGWYRQAPGKEREFVAAISRGATNTYYADSVKGRFTISRDNAKNTVYLQMNSLKPEDTAVYYCARTQRYDYGYDYWGQGTQVTVSS	low polyreactivity
QVQLVESGGRLVQAGGSLRLSCAASGRIFNNYAMGWYRQAPGKERELVAAISGGGSTNYADSVKGRFTISRDNAKNTVYLQMNSLKPEDTAVYYCASGYLKASRDLYETVPYDYWGQGTQVTVSS	low polyreactivity
QVQLVESGAGLVQAGGSLRLSCAASGLTFEWYAMGWYRPAPGKERELVAAISWNGGSTYYADSVKGRFTISRDNAKNTVYLQMNSLKPEDTAVYYCATSSPRRYYWGQGTQVTVSS	high polyreactivity
QVQLVESGGGLVQAGGSLRLSCAASGFIFLSYAMGRYRQAPGKERELVAAISGRGGSTYYADSVKGRFTISRDNAKNTVYLQMNSLKPEDTAVYYCAVRRYRFPPGDYWGQGTQVTVSS	high polyreactivity
QVQLVESGGGLVQAGGSLRLSCAASGSTFRYYAMGWYRQAPGKERELVAAISSSGGSTYYADSVKGRFTISRDNAKNTVYLQMNSLKPEDTAVYYCAARHYSYRVEYDYWGQGTQVTVSS	high polyreactivity
QVQLVESGGGLVQAGGSLRLSCAASGYTFPRYTMGWYRQAPGKERELVAAINWSGGSTYYADSVKGRFTISRDNAKNTVYLQMNSLKPEDTAVYYCAAPVFHLYTDRMGYWGQGTQVTVSS	high polyreactivity
QVQLVESGGGLVQAGGSLRLSCAASGNTFYYAKAWYRQAPGKERELVASIRTGGSTNYADSVKGRFTISRDNAKNTVYLQMNSLKPEDTAVYYCNRDGTYTHTGWDYWRPYEYWGQGTQVTVSS	low polyreactivity
QVQLVESGGGIVQAGGSLRLSCAASGSILDPNAMGTYRQAPGKEREFVASISASGGSTYYADSVKGRFSISRDIAKNTVYLQLNSLKPEDTAVYYCATLQGDSSSQYDYWGQGTQVTVSS	high polyreactivity
QVQLVESGGGLVQAGGILRFSCAASGSTFGLNAMGWYRQAPGQERELVAAISWSGGTTYYADSVKGRFTISRDNAKNTVYLQMNSLTPEDTAVYYCAADVYSSWGYYEVYYWGQGTQVTVSS	high polyreactivity
QVQLVESGGGLVQAGGSLRLSCAASGSIFSKYAMGWYRQAPGKEWEVVAAIRSIGGSTYYADSVMGRFTISRDNAKNTVYLQMNSRNPDDTAVYYCAARFWPAYSGWYENWGQGTQVTVSS	low polyreactivity
QDQLVESGGGLVQAGGSLRLICAASGSIFEPYVMGWYRQAPGKERELVAAIRQTGGSTYYADSVKGRFTISRDNAKNTVYLQMNSLKPEDTAVYYCNAEQNPSGLYDYRGVEGEMGYWGQGTQVTVSS	low polyreactivity
QVQLVESGGGLDQAGGSLRLSCAASGYTLGDYAMGWYRQAPGKERELVAVITRNGGRTYYADSVKGRFTISRDNAKNTVFLQMNSLKPEDTAVYYCNRDTSIRDYNYWGQGTQVTVSS	high polyreactivity
QVHHVESGGVLVKAGGSLRLSCAASGRTIYAYAMGWYRQAPGQESELVAAITSGASTYYADSVKGRFTISRDNAKNTVYLQMNSLKPEDTGVYYCAKRVRYYKPGYDYWGLGTQVTVSS	low polyreactivity
QVQLVESGGGLVQAGGSLRLSCAASGRIFWYNAMGWYRQAPGKERELVAVITSGTSTYYADSVKGRFTISRDNAKNTVYVHMNSLKPDDTAVYYCAARYLSRYSERHYYDWGQGTQVTVSS	high polyreactivity
QVQLQESGGGLVQAGGSLRLSCAASGTIFRFRYMGWHRQAPGKERELVAGINGGTTTYYADSVIGRFTISRDNAINTVYLQMNSLKPDDTAVYNCAAGASRLTYYDYWGQGTQVTVSS	low polyreactivity
QVQLVETGGGLVQAGGSLRLSCAASGFIFPGNMGWDRQAPGKDRELVAAISWSGGSTRYADSVKGRFTISRDNAKNTVYLQMNSLKPEDTAVYYCAASLSGKRFTKRYYWGQGTQVTVSS	high polyreactivity
